Test results published in article PMC6420597, “The MurG glycosyltransferase provides an oligomeric scaffold for the cytoplasmic steps of peptidoglycan biosynthesis in the human pathogen Bordetella pertussis” (Scientific Reports, 2019).

B1: MurG glycosyltransferase from Bordetella pertussis, N-terminal Strep-tagged (enzyme, UniProt Q7VUQ3 1-357, looked up)
chain: MSAPTILIMAGGTGGHIMPGLAVAEVLRERGWRVLWLGNPDKMEGRLVPPRGIELVPLRFQGVRGRGAAALLKLPFLLARACAQAWRRLADIRPDVVLGMGGYVAFPGGVMAALRRTPLVVHEQNAVAGTANRWLARLARRVLSGFPGVLPRGEALGNPVRADLCALPEPAERYAGRSGALRVLVVGGSLGAHALNTTVPQALALLPEQARPQVVHQAGEQHLPALQQAYAQAGVQADCRAFIDDMADAMAQADLLICRAGAMTVSEVAAAGVAALFVPFPHAIDDHQTANARFLSDAQAAWLQPQASLTPQWLAQWLGQRTRQELQAVAGRARTHALPRAAAHIADVCEQAARRAS
notes: MurG, Bordetella pertussis strain ATCC 9797/DSM No 5571; printed as a 357-residue protein; the murG gene was cloned into a modified pET30b; The Strep-tag is TEV-cleavable, but no cleavage is described; It is not clear whether the 357 residues include the tag; The oligomeric state depends on detergent: dimer in DDM/DM, tetramers and higher without; The discussion gives a mass of 50 kDa; also …

Legend:
[1] = target: MurE-MurF bifunctional fusion protein from Bordetella pertussis, His-tagged (Bordetella pertussis (strain ATCC 9797/DSM No 5571))
[2] = target: MurE-MurF bifunctional fusion protein from Bordetella pertussis, His-tagged (Bordetella pertussis (strain ATCC 9797/DSM No 5571)); test: AUC; sedimentation velocity, dimer pool of MurE-MurF at 40, 10 and 2.5 μM, 42,000 rpm, 20 °C
[3] = target: MurE-MurF bifunctional fusion protein from Bordetella pertussis, His-tagged (Bordetella pertussis (strain ATCC 9797/DSM No 5571)); test: SEC-MALS; larger SEC form (dimer pool) of MurE-MurF; 25 mM HEPES pH 7.5, 300 mM NaCl, 10 mM MgCl2, 5% glycerol; room temperature
[4] = target: the molecule itself; test: AUC; sedimentation velocity, MurG 2 mg/ml in buffer with DM (1.2 x CMC), 42,000 rpm, 20 °C
[5] = target: FITC-labelled MurE-MurF fusion protein from Bordetella pertussis (Bordetella pertussis (strain ATCC 9797/DSM No 5571)); test: MST; FITC-labelled MurE-MurF at a fixed concentration, MurG purified in detergent titrated; 25 mM HEPES pH 7.5, 150 mM NaCl, 10 mM MgCl2, 5% glycerol, 0.17% w/v DM; 22 °C; triplicate
[6] = target: FITC-labelled MurE-MurF fusion protein from Bordetella pertussis (Bordetella pertussis (strain ATCC 9797/DSM No 5571)); test: MST; FITC-labelled MurE-MurF at a fixed concentration, oligomeric MurG (purified without detergent) titrated from 1 nM to 37 μM; 25 mM HEPES pH 7.5, 150 mM NaCl, 10 mM MgCl2, 5% glycerol, no detergent; apparent KD, no clear plateau

Molecule	specific activity of the MurF-catalysed reaction (D-Ala-D-Ala-adding) of the dimeric form of MurE-MurF; the monomeric form gave 14.1 µmol/min/mg [1]	stoichiometry N [2]	stoichiometry N [3]	stoichiometry N [4]	Kd [5]	Kd [6]
MurE-MurF bifunctional fusion protein from Bordetella pertussis, His-tagged (enzyme)	7.5 µmol/min/mg	2	2			
B1				2	570 nM	970 nM
